B1: PKM2(F244V) (enzyme)
chain: not shown
notes: pyruvate kinase M2 (PKM2), Homo sapiens, Uniprot ID P14618-1; pET28a-His-PKM2(F244V), made from pET28a-His-PKM2(WT); also called AlloHubM F244V; source: E. coli BL21(DE3)pLysS, purified (HisTrap IMAC, thrombin cleavage, Superdex 200 SEC); not shown: His6, N-terminal, cleaved
B2: PKM2(C358A) (enzyme)
chain: not shown
notes: pyruvate kinase M2 (PKM2), Homo sapiens, Uniprot ID P14618-1; pET28a-His-PKM2(C358A), made from pET28a-His-PKM2(WT); also called AlloHubM C358A; source: E. coli BL21(DE3)pLysS, purified (HisTrap IMAC, thrombin cleavage, Superdex 200 SEC); not shown: His6, N-terminal, cleaved
B3: PKM2(I124G) (enzyme)
chain: not shown
notes: pyruvate kinase M2 (PKM2), Homo sapiens, Uniprot ID P14618-1; pET28a-His-PKM2(I124G), made from pET28a-His-PKM2(WT); also called AlloHubM I124G; source: E. coli BL21(DE3)pLysS, purified (HisTrap IMAC, thrombin cleavage, Superdex 200 SEC); not shown: His6, N-terminal, cleaved
B4: PKM2(K305Q) (enzyme)
chain: not shown
notes: pyruvate kinase M2 (PKM2), Homo sapiens, Uniprot ID P14618-1; pET28a-His-PKM2(K305Q), made from pET28a-His-PKM2(WT); also called AlloHubM K305Q; source: E. coli BL21(DE3)pLysS, purified (HisTrap IMAC, thrombin cleavage, Superdex 200 SEC); not shown: His6, N-terminal, cleaved
B5: PKM2(A327S) (enzyme)
chain: not shown
notes: pyruvate kinase M2 (PKM2), Homo sapiens, Uniprot ID P14618-1; pET28a-His-PKM2(A327S), made from pET28a-His-PKM2(WT); also called AlloHubM A327S; source: E. coli BL21(DE3)pLysS, purified (HisTrap IMAC, thrombin cleavage, Superdex 200 SEC); not shown: His6, N-terminal, cleaved

Target: the molecule itself
Assay: native MS; nano-ESI, PKM2 in 200 mM ammonium acetate pH 6.8, with added saturating FBP (10 µM FBP to 10 µM PKM2; 10:1 FBP:PKM2 for the AlloHub mutants); also with 300 µM Phe added before or after FBP

Protein	binding result	stoichiometry N
B1	binds	
B2		4
B3	binds	
B4		4
B5		4
